The record followed here is paper PMC6658013 (PLoS Pathogens, 2019).

The target of the experiment is T1, prefusion-stabilized RSV F (DS-Cav1), subtype B (strain B9320), with C-terminal His tag and Strep-tag II … (human respiratory syncytial virus B, …, UniProt Q6V2E7, stabilised).
T1 construct: copies: 3 + 3
In words: SPR. The following applies: both partners purified.

B1: RSD5-WT Fab (parental RSD5) (Fab, V domains shown)
VH: QVQLVESGGGVVQPGRPLRLSCAASGFAFNNFALHWVRQAPGKGPEWLAAVSYDGTSPYYAESVRARFSISRDNSKKTFYLQLDSLRPEDTAVYYCARGLGSGSYSWIGYFYAMDVWGRGTTVTVSS
VL: QSALTQPASVSGSPGQSITISCTGTSSDVGGYVYVAWYQQHPGTAPKLIIYDVSDRPSGVSNRFSGSKSGNTASLTISGLQAEDDADYYCISYTDRNTVVFGGGTKLTVL
For B1, the binding result is “binds”.
